For 1 substance, stoichiometry N results are on record in paper PMC4974525.

As a reminder, the stoichiometry N is the number of molecules, sites or subunits per partner or assembly.

The assay addresses African cassava mosaic virus (ACMV) capsid protein expressed in fission yeast (African cassava mosaic virus (ACMV-[Nigeria-Ogo])). Briefly: SDS-PAGE with Western blot. A general note: A western blot detects proteins with antibodies after separation by electrophoresis.

Substance “African cassava mosaic virus (ACMV) capsid protein expressed in fission yeast (natural protein)” had a stoichiometry N of 2.
